Experimental data from the supplement of paper PMC9170038.

These sequences were tested on MS2 coat protein (assay: apparent KD of MS2 coat protein; higher = weaker reporter binding). Conditions: Eterna round: R107; input ligand: arginine 13.2 mM.
Method: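 RNA-MaP round R107: designed RNA switches with theophylline, tryptophan, arginine or FMN aptamers are transcribed on-chip within common flanks. They are titrated with SNAP-549-labelled MS2 coat protein in RNA-MaP buffer (100 mM Tris pH 7.5, 80 mM KCl, 4 mM MgCl2), without ligand or with the indicated ligand. Median apparent KD per design.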
“GUUUAAAGGUCGGCCGCCACUGUAGGAUGUGUUCUUUCACAUGAGGAUCACCCAUGUUGUUAUUAUAGGACCGGGAUUUUAGGAC [39MS split4]” was tested, and the “apparent KD of MS2 coat protein” value was 25.8 nM. With “UUGUUGUUUGGAAGGAGCGUGUAAGAUUAAGAACAUGAGGAUCACCCAUGUUGUAAGGUAGCACAGGUAGGUCGCCGGGUGGUGG [11.T]” the “apparent KD of MS2 coat protein” value was 19.3 nM. For “AUCGUACCUGAAGAUACCAGCAUGUGAUCAUAACAUGAGGAUCACCCAUGUAAUCAGUGAUGCCCUUGGCAGCUUGAUCGGUACA [Same State - Theophylline B (Freestyle 12)]”, the “apparent KD of MS2 coat protein” value was 39.6 nM. “GCACCAGGUACGGAUACCAGCUAUAGGCACAGAGGAGGACAUGAGGAUCACCCAUGUGAUGGCCCUUGGCAGCUGUACCUGGUGC [EThB NP+V+V2 #3]” was tested, and the “apparent KD of MS2 coat protein” value was 8.89 nM. “UCGGGCAUGGCGGCCGCCACUGGUUGGCGUGCGGAUGAGGGAACAUGAGGAUCACCCAUGUUGGUUAGGACCGGGCUUGCGUCGU [knkmullin]” was tested, and the “apparent KD of MS2 coat protein” value was 11.8 nM. In the case of “AAUAUAAUAUAAAUAAUAAUAAUAUCUGAUACCAGACUCUCAUGUGUCCCUUGGCAGCAGUAACAUGAGGAUCACCCAUGUAAUA [JR_Nu_SSTheophyA_Sub027]”, the “apparent KD of MS2 coat protein” value is reported as 33 nM. With “AUAACAUGAGGAUCACCCAUGUAUUGGUAACGAGGACCGGUACGGCCGCCACUCGAAUUUUGGUGGUAUAAUAUAUAUAUGAUUA [JR_SSTryptoA_Sub016]” the “apparent KD of MS2 coat protein” value was 17.4 nM. For “GAAUAAGAAUCGGCCGCCACUCACAUGAGGAUCACCCAUGUACAUGAGGAACAUGAAAAUCACCCGAGGACCGGGAUAUAUGUUC [Excluion - Tryptophan B #1]”, the “apparent KD of MS2 coat protein” value was 31.1 nM. “ACAUUGCGCUCGGCCGCCACUGCCUUAUGAUUAUAAGGAUUAAUGAACAUGAGGAUCACCCAUGUCAGGACCGGGAGCGAACCAU [SSTryp B #6]” was tested, and the “apparent KD of MS2 coat protein” value was 11.4 nM. In the case of “CUCGGUUGAUCCUAGCUGCCGAGAGGUGAUACCAGCAUCGAAAGAUGCCCUUGGCAGCACCAACAUGAGGAUCACCCAUGUAAUA [(MT)''-(M)'-(T')-(Theo)-(Ms2)_Design1/22_5]”, the “apparent KD of MS2 coat protein” value is reported as 30.2 nM. For “CAUGGGUGGGUGCUGCCACCCAUUGGUGAUACCAGCAUCGAAAGAUGCCCUUGGCAGCACCAACAUGAGGAUCACCCAUGUAAUA [(M)'-(T)'-(M)''-(T1)-(T2)-(M1)-(M2)_Design4]”, the “apparent KD of MS2 coat protein” value was 58.6 nM. “GCAUGUGGAGUCUUACUAGAGAGGACAGAUACCAGUAAGAUGUGAUACCCUUGGCAGCUGCGAUUUACAUGAGGAUCACCCAUGU [X-TheoA-ms2@67]” was tested, and the “apparent KD of MS2 coat protein” value was 19.2 nM. In the case of “CUAUAAGUACCGGUCCUCAGAUCCUCAUGACGAGGACCGGUACGGCCGCCACUCGAAACAUGAGGAUCACCCAUGUAAUAAUAAU [Brourdmod06]”, the “apparent KD of MS2 coat protein” value is reported as 15 nM. With “UUUGAAAUAACAGAUACCAGCGUGUUAUAAAACAUGAGGAUCACCCAUGUAGUGAUCAAGCGCCCUUGGCAGCUGGUAUUUUAGG [7.F]” the “apparent KD of MS2 coat protein” value was 118 nM. In the case of “ACAUGAGGAUCACCCAUGUAAUAAGGAGAAGGAGCGCGUAAGGACGCAGGUAGGUCGCUCGUGGUCCGGCCGCAAGGCCGGACCA [#1 Same State - Arginine A Attempt #8 (HarryS)]”, the “apparent KD of MS2 coat protein” value is reported as 4.83 nM. In the case of “UCGUUUGAGGCGGCCGCCACUGGUCUCAUGGUCAACAUGAGGAUCACCCAUGUAUCUUUGCUAAGCAGGACCGGGCCUCGAGCGA [#19 Exclusion Tryptophan B]”, the “apparent KD of MS2 coat protein” value is reported as 43.5 nM. With “AUGGACGGCGAUCUGGGUUUACCAGAUCGGCGAGGACCGGUACGGCCGCCACUCGUGUUUAUUUAACAUGAGGAUCACCCAUGUA [SSTA #2]” the “apparent KD of MS2 coat protein” value was 62.4 nM. In the case of “UGGUAGGUAGGAAGGAGCGCAUACUUCACAUGAGGAUCACCCAUGUCGAGACGUGAGUCAGUGCAGGUAGGUCGCCUAGUUAUGA [Same State - Arginine B (Freestyle 23)]”, the “apparent KD of MS2 coat protein” value is reported as 30.4 nM. In the case of “UAUAUAUACUCGGCCGCCACUGAGAGAGUCAUGUAAACAUGAGGAUCACCCAUGUAAUAUAUAUACAGGACCGGGAGUAUAUGAA [4.B]”, the “apparent KD of MS2 coat protein” value is reported as 11.8 nM. In the case of “ACCUGUACGAAAAGUGCAGGACAUGGAAAUCGAGGACCGGUACGGCCGCCACUCGUUGAAAACAAGUGGAUCACCCUUGUCCAUG [TrypAS 3 #AlternativeMS2 #Zipper #StaticStem]”, the “apparent KD of MS2 coat protein” value is reported as 35.3 nM. With “GGCCCGGACUUGGAAUGGGUGUUUCCCUCACGAGGACCGGUACGGCCGCCACUCGAAGACAUGAGGAUCACCCAUGUAGUCGACA [Qudirate]” the “apparent KD of MS2 coat protein” value was 31.2 nM. With “AAUUCAAGGUUCUUGAUGUAUUAUAUAUUUCGAGGACCGGUACGGCCGCCACUCGUUAAUUACAUGAGGAUCACCCAUGUUAGCU [JR_ExcTryptoA_Sub010]” the “apparent KD of MS2 coat protein” value was 14.2 nM. “GCCGGACUUUCGGCCGCCACUGAGAGAGUCGUGUGAACAUGAGGAUCACCCAUGUAAUAUAUAUACAGGACCGGGAGGGUUCGGC [4.S]” was tested, and the “apparent KD of MS2 coat protein” value was 10.5 nM. In the case of “GUCUCUGAGAGAAGGAGCGUGAAGACAUGAGGAUCACCCAUGUAGAGGCGCCGAAGGCGUUCGCAGGUAGGUCGCUCUCAGAGAC [#1 Same State - Arginine B Attempt #20 (HarryS)]”, the “apparent KD of MS2 coat protein” value is reported as 15.2 nM. For “UGUAUGUGAUCUGAUACCAGCGAUGAUAACCUGAGGAUCACCCUGGUAAGGCGAAAGCCUCGCCCUUGGCAGCAGAUCGCAUACU”, the “apparent KD of MS2 coat protein” value was 407 nM. In the case of “GGGUACAUCGCGGCCGCCACUCGUGUAAAUACAUGAGGAUCACCCAUGUCGAUGGAGACAUCGGAGAGGACCGGGUGAUGUACCG”, the “apparent KD of MS2 coat protein” value is reported as 110 nM. For “ACCGCAUCCGUAUAGGAUGCGGCCCAUGAAGGAGCGUGGGAAACCACAGGUAGGUCGCAUGGAUUACAUGAGGAUCACCCAUGUG [Skyfall]”, the “apparent KD of MS2 coat protein” value was 104 nM. With “CUCGAGGCCGGUGAUACCAGACACGAAACUAUACAUGAGGAUCACCCAUGUCAAACAACGGUCCCUUGGCAGCAUGGGUGUAUCC [Enzabemage]” the “apparent KD of MS2 coat protein” value was 26.9 nM. For “CGAUCUUUCGAAAGAAGGAUCGAUUCUGAUACCAGAGACGAAAGUCUCCCUUGGCAGCAGUGCCAACAUGAGGAUCACCCAUGUA [Theophylline A 8]”, the “apparent KD of MS2 coat protein” value was 26.4 nM. For “AUGCAUAGCCGAAGGAGCGCAAUAGAAUGACAUGAGGAUCACCCAUGUGUGUGAUGUGGAUUGCAGGUAGGUCGCGGAGUGGUAU [Exclusion - Arginine B (Freestyle 4)]”, the “apparent KD of MS2 coat protein” value was 34.2 nM. With “CAAAACCUUACAGAUACCAGCACAUGAGGAUCACCCAUGUAUUGGACACUUCGCUCAUCGUGCCCUUGGCAGCUGUGGGACGAGG [Tiatenan]” the “apparent KD of MS2 coat protein” value was 30.3 nM. In the case of “UAUGCACAUGAGGAUCACCCAUGUAUGGAAGGAGCGGUGAAUAAACCAGGUAGGUCGCCAUGGUGAGGAUCAUCUAUGUAAUCGU [Exclusion - Arginine A (Freestyle 6)]”, the “apparent KD of MS2 coat protein” value is reported as 62.3 nM. In the case of “CGCAACAUGAGGAUCACCCAUGUAAUGACGCGAGGACCGGUACGGCCGCCACUCGCCUGGCAGUGAGCGCAUGCGGCCUGGGUAU [Exclusion Tryp A GF8]”, the “apparent KD of MS2 coat protein” value is reported as 10.6 nM. For “AAAAGUGGGUCAAUUAUUUAAACUUCAGAAGGAGCGUGAUGUUUCACAGGUAGGUCGCUGAUAACAUGAGGAUCACCCAUGUAUU [JR_ExcArginiA_Sub007]”, the “apparent KD of MS2 coat protein” value was 30.8 nM. “AAUGAUGCGAUCUACAGUCGAGGAUUCGAUACCAGCAACGGGCGUUGCCCUUGGCAGCGAGCUACAUGAGGAUCACCCAUGUUAC [theeternabot_exclusion_MS2_Theo_A_45]” was tested, and the “apparent KD of MS2 coat protein” value was 16.8 nM. For “AGCCCUGUACUAGAUACCAGCUACAUGAGGAUCACCCAUGUGCGUCAAGACUGACUGUGUAGCCCUUGGCAGCUACUCGCAUGUA [Exclusion - Theophylline B (Freestyle 3)]”, the “apparent KD of MS2 coat protein” value was 13.7 nM. In the case of “CCUAUGCAGUCGGCCGCCACUGAAAUCAAUAAGAUUACCUCAGAAACAUGAGGAUCACCCAUGUACAGGACCGGGACUGUAUAGG [Ex Tryptophan B 16]”, the “apparent KD of MS2 coat protein” value is reported as 20.6 nM.
